Laboratory results reported in article PMC12614781, “The VelB IDD promotes selective heterodimer formation of velvet proteins for fungal development” (Life Science Alliance, 2025).

Molecular target: T1, VelB-GFP (A. nidulans Velvet-like B, full length, fused to GFP) (A. nidulans, UniProt C8VTS4 1-369)
T1 construct: Velvet-like B (VelB), A. nidulans, AN0363, full-length protein with the 99-aa intrinsically disordered domain (IDD) inside the velvet domain; Strains AGB1132 (wild-type background), AGB1190 (veA deletion background), AGB1136 (with vosA:ha), AGB1149 (with veA:ha); plasmid pME4687; Fusion printed as 67 kD; also called velB::sgfp; full-length VelB-GFP; source: A. nidulans, velB:gfp in locus under …
T1 sequence (looked up): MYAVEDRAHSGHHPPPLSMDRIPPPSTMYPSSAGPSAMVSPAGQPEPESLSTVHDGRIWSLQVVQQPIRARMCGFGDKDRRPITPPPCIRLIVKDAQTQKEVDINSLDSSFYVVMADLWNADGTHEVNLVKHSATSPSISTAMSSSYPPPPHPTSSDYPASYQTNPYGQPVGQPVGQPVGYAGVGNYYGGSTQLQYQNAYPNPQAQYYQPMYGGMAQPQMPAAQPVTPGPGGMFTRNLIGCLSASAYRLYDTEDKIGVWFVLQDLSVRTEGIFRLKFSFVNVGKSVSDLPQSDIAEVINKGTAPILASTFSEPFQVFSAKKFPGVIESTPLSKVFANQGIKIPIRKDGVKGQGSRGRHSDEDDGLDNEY
Assay: co-IP; GFP and HA (anti-HA agarose) pull-downs from vegetative mycelium of A. nidulans strains expressing veA:HA or vosA:HA and velB:gfp or velB^ΔIDD:gfp under native promoters, intact veA; Western with GFP and HA antibodies
Settings: partners not purified

B1: VosA-HA (A. nidulans VosA with HA tag) (natural protein, UniProt Q5BBX1 1-430, looked up)
chain: MSAANYPDPSLPRPSTSDDFELIVRQNPNRARVAGGKEKERKPVDPPPIVQIRVREEGTYLAQHYLQSPYFFMSCSLYDAQEDAPASIPPSTALTGTLVSSLHRLKDVDNTDGGFFVWGDLSIKVEGDFRLKFSLFEMRKTDVVFLKSIVSERFTVSPPKSFPGMAESTFLSRSFADQGVKLRIRKEPRTLIKRTAPRPEEYPQAAIPRSPSDRTAMQIPGSSYPAPPYQPTSRDYSYYAPVKRQRTSVDYGARGMYDADGRMRQMETYPQTATLYGQPGGYPTPMMGYPSGHGGVPDYAMSYGLPPSAQVPQMQDPAAQSRSSQQATMQSLGMVNPPGTPTPDSARAMMQQAYPRPQYSASTAVLPPLQQSRNYPQGTNGATRGYYEQSPQATPILPSQPLGTSEAERYGVPPGHTGYDHTGSANGTPR
notes: Viability of spores A (VosA), A. nidulans, AN1959; the vosA gene amplified with its 5' flanking region; Plasmid pME4693; strains AGB1136 (with velB:gfp) and AGB1137 (with velB^ΔIDD:gfp); source: A. nidulans, vosA:ha under its native promoter, in extract of vegetative mycelium
B1 was tested. Which “fold abundance of VosA in the GFP pull-down against the VelB^ΔIDD-GFP strain” value did it give?
The value was 10 fold.
